Laboratory results: patent publication US20240343810A1 (published 2024)
Blank lines part the entries; values can stand above or below the binder they belong to.

Key:
[1] = biological target: T1, human ICOS-mFc (Chimerigen) (human, UniProt Q9Y6W8 21-140); experiment: DELFIA ELISA on coated human ICOS-mFc, N=2
T1 construct: Bought; also called recombinant human ICOS protein; hICOS; not shown: mouse Fc of the bought fusion
T1 sequence: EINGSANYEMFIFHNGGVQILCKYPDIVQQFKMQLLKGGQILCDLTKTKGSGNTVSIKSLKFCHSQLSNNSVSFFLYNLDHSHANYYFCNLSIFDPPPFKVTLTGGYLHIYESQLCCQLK
Procedure: (§1) Recombinant ICOS proteins, human ICOS-mFc or mouse ICOS-mFc (Chimerigen) were diluted in 1×PBS and added to Black Hi-bind plates (Griener) at 1 μg/ml, 50 μl/well. Recombinant PD-L1 proteins, human PD-L1-Flag-His or mouse-His were diluted in 1×PBS and added to Black Hi-bind plates (Griener) at 4 μg/ml, 50 μl/well. The plates were left overnight at 4° C. The next day plates were washed 3× with 300 μl/well of 1×PBS+0.1% Tween and blocked with 200 ul/well of 1×PBS+1% BSA blocking buffer for 1 hr at RT on a plate shaker. Plates were washed 3× with 300 μl/well of 1×PBS+0.1% Tween.
(§2) However, human-PD-L1 mAb² antibodies were diluted in 1×PBS+0.1% BSA buffer and diluted 1 in 2 from a starting working concentration of 0.066 μM over an 11 point titration. Titrated antibodies were added to the plates, 50 μl/well and left to incubate for 1 hr at R.T on a plate shaker. Plates were washed 3× with 300 μl/well of 1×PBS+0.1% Tween.
(§3) DELFIA® Eu-labelled Anti-human IgG (Perkin-Elmer) was diluted 1:500 in DELFIA Assay buffer (Perkin-Elmer) and added to the assay plate (50 μl/well), left to incubate for 1 hr at RT on a plate shaker. […] After incubation, assay was read on Envision plate reader (Perkin Elmer), Time-resolved fluorescence (TRF) was measured at 615 nm.

[2] = biological target: T2, mouse ICOS-mFc (Chimerigen) (mouse, UniProt Q9WVS0 21-141, limits assumed); experiment: DELFIA ELISA on coated mouse ICOS-mFc, N=1
T2 construct: Bought; also called recombinant mouse ICOS protein; mICOS; not shown: mouse Fc of the bought fusion
T2 sequence: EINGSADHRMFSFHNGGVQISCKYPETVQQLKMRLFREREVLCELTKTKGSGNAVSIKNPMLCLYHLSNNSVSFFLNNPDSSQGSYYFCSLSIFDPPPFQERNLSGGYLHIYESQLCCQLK
Procedure: as §1, §2, §3

[3] = biological target: T1, human ICOS-mFc (Chimerigen); experiment: HTRF, human ICOS-mFc, competitor human B7-H2-Alexa 647, n3
Procedure: 5 μl of human ICOS-mFc (Chimerigen) at 20 nM (5 nM final) or 5 ul of mouse ICOS-mFc (Chimerigen) at 4 nM (1 nM final) were added to relevant assay wells. Plate was incubated for 1 hour (hr) at room temperature (RT).
After incubation, assay was read on Envision plate reader (Perkin Elmer) using a standard HTRF protocol. 620 nm and 665 nm channel values were exported to Microsoft Excel and % Delta-F and % Neutralisation calculations performed. Titration curves and IC50 values [M] were plotted using Graphpad (Prism). IC50 values were calculated by first transforming the data using equation X=Log(X). The transformed data was then fitted using nonlinear regression, using fitting algorithm, log (inhibitor) vs. response—variable slope (four parameters).

[4] = biological target: T3, mouse ICOS expressed on CHO cells (mouse, UniProt Q9WVS0 21-200); experiment: Flow cytometry on CHO-S mouse ICOS cells, anti-human IgG AF647, N=3
T3 construct: also called CHO-S cells transfected with mouse ICOS; mICOS
T3 sequence (looked up): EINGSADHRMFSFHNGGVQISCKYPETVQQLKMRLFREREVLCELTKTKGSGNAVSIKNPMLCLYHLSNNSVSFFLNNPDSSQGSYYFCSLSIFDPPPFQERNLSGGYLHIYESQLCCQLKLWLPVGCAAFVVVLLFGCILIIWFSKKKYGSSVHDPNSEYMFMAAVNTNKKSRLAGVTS
Procedure: CHO—S cells transfected with either human ICOS or mouse ICOS were resuspended in FACS buffer (PBS+1% w/v BSA+0.1% w/v sodium azide) and transferred to a 96-well V-bottom plate (Greiner) at a density of 1×10⁵ cells per well. mAb and mAb² were titrated in FACS buffer, 1 in 3 dilution across 11 points from a starting working concentration of 400 nM. Plates were centrifuged at 300×g for 3 minutes, supernatant discarded and 50 μL mAb or mAb² solution were added to cells and incubated at 4° C. for 1 hour. Cells were washed with 150 μL of PBS and centrifuged at 300×g for 3 minutes, supernatant was discarded and cell pellet resuspended in 150 μL PBS added. This wash step was repeated twice. Bound mAb or mAb² was detected by addition of 50 μL of anti-human 647 (Jackson ImmunoResearch) diluted to 3 ug/ml in FACS buffer. Cells were incubated for 1 hour at 4° C. in the dark. Cells were washed with 150 μL of PBS and centrifuged at 300 g for 3 minutes, supernatant was discarded and cell pellet resuspended in 150 μL PBS added. This wash step was repeated twice. Cells were fixed with 25 μL 4% v/v paraformaldehyde, incubated for 20 minutes at 4° C., cells were pelleted by centrifugation at 300×g and the supernatant discarded. […] AlexaFluor 647 signal intensity (geometric mean) was measured by flow cytometry using a Beckman Coulter CytoFLEX instrument.

[5] = biological target: T4, Biotinylated human ICOS protein (human, UniProt Q9Y6W8 21-140, limits assumed, biotinylated (sites not given)); experiment: SPR ProteOn avidity format, biotinylated human ICOS on NLC chip, antibody analyte, 25 C
T4 construct: Captured on the NLC chip in the avidity SPR
T4 sequence: T1 sequence
Procedure: Biotinylated human ICOS protein diluted at 7.5 μg/mL in running buffer (1× HBS-EP+ Buffer Technova, cat. No. H8022) was captured on a NLC sensor chip (Bio-Rad, cat No 1765021). The surface was then blocked using biocytin (Sigma Aldrich, cat No B1758) at 1 mg/mL.
The assay was carried out at 25° C.
The buffer injection (i.e. 0 nM) was used to double reference the sensorgrams. The analysis was carried out using the equilibrium model inherent to the ProteOn's analysis software for each mAb² construct.

EC50 [1]: 25.5 nM
EC50 [2]: 11.4 nM
IC50 [3]: 2.33 nM
EC50 [4]: 20.1 nM
koff [5]: 0.000456 s⁻¹
B1: STIM001 (antibody, human IgG1, kappa)
heavy: not shown
light: DIVMTQSPLSLPVTPGEPASISCRSSQSLLHSNEYNYLDWYLQKPGQSPQLLIFLGSNRASGVPDRFSGSGSGTDFTLKITRVEAEDVGIYYCMQSLQTPLTFGGGTKVEIKRTVAAPSVFIFPPSDEQLKSGTASVVCLLNNFYPREAKVQWKVDNALQSGNSQESVTEQDSKDSTYSLSSTLTLSKADYEKHKVYACEVTHQGLSSPVTKSFNRGEC
notes: Anti-ICOS monospecific antibody, tested as human IgG1; also called STIM001 monoclonal IgG1 antibody

EC50 [1]: 1.04 nM
EC50 [2]: 0.416 nM
IC50 [3]: 0.71 nM
EC50 [4]: 7.28 nM
koff [5]: 0.000449 s⁻¹
B2: STIM003 (antibody, human IgG1, kappa)
heavy: not shown
light: EIVLTQSPGTLSLSPGERATLSCRASQSVSRSYLAWYQQKRGQAPRLLIYGASSRATGIPDRFSGDGSGTDFTLSISRLEPEDFAVYYCHQYDMSPFTFGPGTKVDIKRTVAAPSVFIFPPSDEQLKSGTASVVCLLNNFYPREAKVQWKVDNALQSGNSQESVTEQDSKDSTYSLSSTLTLSKADYEKHKVYACEVTHQGLSSPVTKSFNRGEC
notes: Anti-ICOS monospecific antibody, tested as human IgG1; also called STIM003 monoclonal IgG1 antibody
